The target in one test is ScuR/SarF system. The test is described as follows: cell-based or functional assay.
The target of test [1] is ScuR-StrepTag (Streptococcus salivarius HSISS4). Put plainly: EMSA: Cy3 PsptA probe, constant ScuR-StrepTag, decreasing sBI7; peptide-dependent ternary complex.

Where only a bound is given, the exact number is not on record here.

With LPFWLILG [sBI7], the peptide concentration to which the PsptA, PslvX and PcomS luxAB reporters respond in WT background with ScuR/SarF system was under 1 nM. The lowest peptide concentration at which ScuR shifts the PsptA probe in test [1] stood at 0.08 nM.

The values are drawn from patent US20220017573A1.
